From patent US20170190782A1 (ABGENOMICS COOPERATIEF U A, published 2017)

T1: E. coli expressed hCD162 fragment 42-319 fused to human immunoglobulin gamma 1 heavy chain constant region (human, UniProt Q14242 42-319)
T1 construct: Expressed in E. coli from pET-32a; junction residues are not spelled out; not shown: human immunoglobulin gamma 1 heavy chain constant region
T1 sequence (looked up): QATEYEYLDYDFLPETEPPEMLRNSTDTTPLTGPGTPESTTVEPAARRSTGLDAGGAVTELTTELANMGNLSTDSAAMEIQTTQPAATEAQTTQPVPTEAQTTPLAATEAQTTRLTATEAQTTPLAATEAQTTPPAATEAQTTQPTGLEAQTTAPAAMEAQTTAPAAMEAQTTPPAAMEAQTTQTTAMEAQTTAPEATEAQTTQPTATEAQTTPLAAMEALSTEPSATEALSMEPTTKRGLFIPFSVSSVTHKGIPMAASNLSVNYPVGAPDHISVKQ

T2: human P-Selectin Glycoprotein Ligand-1 (PSGL-1) (human, UniProt Q14242 42-412)
T2 construct: whole, on cells; also called hCD162; human CD162
T2 sequence (looked up): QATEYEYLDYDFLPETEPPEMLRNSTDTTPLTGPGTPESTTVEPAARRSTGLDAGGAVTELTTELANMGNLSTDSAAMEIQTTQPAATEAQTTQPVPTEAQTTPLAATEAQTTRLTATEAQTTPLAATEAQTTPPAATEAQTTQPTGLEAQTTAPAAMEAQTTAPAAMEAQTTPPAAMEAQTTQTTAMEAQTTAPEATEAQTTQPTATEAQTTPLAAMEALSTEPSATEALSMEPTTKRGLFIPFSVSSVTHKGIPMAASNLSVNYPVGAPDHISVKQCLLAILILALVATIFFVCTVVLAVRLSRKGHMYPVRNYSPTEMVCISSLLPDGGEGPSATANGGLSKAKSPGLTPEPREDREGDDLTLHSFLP

T3: E. coli expressed hCD162 fragment 42-80 fused to human immunoglobulin gamma 1 heavy chain constant region (human, UniProt Q14242 42-80)
T3 construct: range 42-80; Expressed in E. coli from pET-32a; junction residues are not spelled out; not shown: human immunoglobulin gamma 1 heavy chain constant region
T3 chain (looked up): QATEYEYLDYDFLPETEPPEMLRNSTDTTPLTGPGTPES

T4: E. coli expressed hCD162 fragment 42-119 fused to human immunoglobulin gamma 1 heavy chain constant region (human, UniProt Q14242 42-119)
T4 construct: range 42-119; Expressed in E. coli BL21(DE3) from pET-32a; NdeI/BglII cloning adds a start Met and junction residues that are not spelled out; also called fusion protein covering residues 42-119; not shown: human immunoglobulin gamma 1 heavy chain constant region
T4 sequence (looked up): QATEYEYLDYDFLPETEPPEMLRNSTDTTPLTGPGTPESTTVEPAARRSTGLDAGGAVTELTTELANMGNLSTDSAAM

B1: mouse 15A7 antibody (antibody, V domains shown)
VL: DILMTQTPLSLPVSLGDQASISCRSSQSIVHNDGNTYFEWYLQKPGQSPKLLIYKVSNRFSGVPDRFSGSGSGTHFTLNISRVEAEDLGIYYCFQGSYVPLTFGAGTKLELK
VH: DVQLVESGGGLVQPGGSRKLSCAASGFTFSSFGMHWVRQAPEKGLEWVAYINGGSSTIFYANAVKGRFTISRDNPKNTLFLQMTILRSEDTAIYYCGRYASYGGGAMDYWGQGTSVTVSS
notes: Mouse IgG1 from hybridoma m152-15A7; also called m15A7; m152-15A7
B2: chimeric 15A7 antibody (antibody, V domains shown)
VH: DVQLVESGGGLVQPGGSRKLSCAASGFTFSSFGMHWVRQAPEKGLEWVAYINGGSSTIFYANAVKGRFTISRDNPKNTLFLQMTILRSEDTAIYYCGRYASYGGGAMDYWGQGTSVTVSS
VL: DILMTQTPLSLPVSLGDQASISCRSSQSIVHNDGNTYFEWYLQKPGQSPKLLIYKVSNRFSGVPDRFSGSGSGTHFTLNISRVEAEDLGIYYCFQGSYVPLTFGAGTKLELK
notes: Mouse 15A7 VL on the human light chain constant region (pVk) and mouse 15A7 VH on the human IgG1, IgG2 or IgG4 heavy chain constant region (pVg1, pVg2, pVg4)
B3: humanized 15A7 antibody (antibody, V domains shown)
VH: EVQLVESGGGLVQPGGSLRLSCAASGFTFSSFGMHWVRQAPGKGLEWVAYINGGSSTIFYANAVKGRFTISRDNAKNTLYLQMNSLRAEDTAVYYCARYASYGGGAMDYWGQGTLVTVSS
VL: DIQMTQSPSSLSASVGDRVTITCRSSQSIVHNDGNTYFEWYQQKPGKAPKLLIYKVSNRFSGVPSRFSGSGSGTHFTLTISSLQPEDFATYYCFQGSYVPLTFGQGTKVEIK
notes: V regions were inserted into the pVk and pVg4 vectors (human kappa light chain constant region, human IgG4 heavy chain constant region); also called Hu15A7
B4: mouse 43B6 antibody (antibody, V domains shown)
VL: ENVLTQSPAIMSASPGEKVTMTCRASSTVNSTYLHWFQQKSGASPKLWIYGSSNLASGVPARFSGSGSGTSYSLTISSVEAEDAATYYCQQYSGYPLTFGAGTTLELK
VH: EVQLQQSGPDLVKPGALVKISCKASGYSFTAYYIHWVKQSHGKSLEWIGRVNPNTGGTSYNPKFKGKAILNVDKSSSTAYMELRSLTSEDSAVYYCARSGSPYYRYDDWGQGTTLTVSS
notes: Mouse IgG1 from hybridoma m166-43B6; also called m166-43B6; M166-43136
B5: mouse 9F9 antibody (antibody, V domains shown)
VL: DVLMTQTPLSLPVSLGDQASISCRSSQSIVNSNGNTYLEWYLQKPGQSPKLLIYKVSNRFSGVPDRFSGSGSGTDFTLKISRVEAEDLGVYYCFQGSHVPWTFGGGTKLEIK
VH: EVQLVETGGGLVQPKGSLKLSCAASGFTFNTNAMNWVRQAPGKGLEWVARIRSKSNNYATYYADSVKDRFTISRDDTQSMIYLQMNNLKTEDTGMYYCVRGGSYWYFDVWGAGTTVTVSS
notes: Mouse IgG1 from hybridoma m128-9F9; also called m128-9F9

Tests used:
[1] = target: human P-Selectin Glycoprotein Ligand-1 (PSGL-1) (human) (UniProt Q14242); assay: FACS, inhibition of recombinant human P-selectin binding to activated T cells; competitor P-selectin
[2] = target: T1, E. coli expressed hCD162 fragment …; assay: sandwich ELISA, fusion protein captured by goat anti-human IgG, antibody at 2 µg/ml
Experimental: (§1) A sandwich ELISA was conducted to study the interaction between the hCD162 fragments and each of 15A7, 9F9, and 43B6. 96-well microtiter plates were coated with goat anti-human IgG (Southern Biotechnology, Cat. No. 2040-01) antibody (2 μg/ml, 50 μl/well) overnight at 4° C. Plates were blocked by incubation with 0.25% of BSA in PBS (150 μl/well) for 1 hour at 37° C. The blocked plates were then incubated with fusion proteins containing various fragments of human CD162 (2 μg/ml) for 2 hours at room temperature. After washing 4 times with PBS containing 0.05% of Tween 20 (PBST), the plates were incubated with testing antibodies (2 μg/ml) for 1.5 hours at room temperature.
(§2) After incubation, the plates were washed 4 times with PBST. 50 μl of 1 to 3000 diluted goat anti-mouse IgG conjugated with alkaline phosphatase (Southern Biotechnology, Cat. No. 1031-04) was then added to each well and the plates were incubated for 1 hour at 37° C. Enzyme reaction was carried out by adding 50 μl of an alkaline phosphatase substrate solution (1 alkaline phosphatase substrate tablet dissolved in 5 ml of substrate buffer containing 0.012 M of Na₂CO₃, 0.16 M of NaHCO₃ and 1 mM of MgCl₂ at pH 8.6), and absorbance at 405 nm was determined.

[3] = target: T2, human P-Selectin Glycoprotein Ligand-1 …; assay: FACS competition against Biotin-labeled mouse 15A7 on CD162-expressing Sp2/0 cells
Experimental: (§3) Sp2/0 transfectants stably expressing human CD162 were used as source of human CD162 antigen. Biotin-labeled mouse 15A7 was used as tracer. Increasing amounts of competitor antibodies (mouse, chimeric, or humanized 15A7) were mixed with 35 ng of Biotin-labeled mouse 15A7 and incubated with 1×10⁵ CD162-expressing Sp2/0 cells for 1.5 hours at 4° C. with constant shaking. After washing, secondary antibody, Streptavidin-PE (Becton Dickinson Immunocytometry System Inc. Cat. No. 349023) was added to the mixture. After incubating for 45 minutes at 4° C., the cells were washed again, resuspended in 300 μl of PBS-1% of FBS, and subjected to FACS analysis.

[4] = target: T2, human P-Selectin Glycoprotein Ligand-1 …; assay: FACS, inhibition of recombinant human P-selectin binding to activated T cells; competitor P-selectin; the antibody binds PSGL-1 but does not block
Experimental: (§4) Human PBMC were activated with 1% PHA for 2 days and maintained in IL-2-containing medium for 3 days. The cells were incubated with titrated 9F9, 15A7, 43B6, KPL-1 (an PSGL-1 antagonist), or a control antibody (9E10) for 30 minutes, followed by the addition of recombinant human P-selectin (1.25 μg/ml). Binding of P-selectin to activated T cells was measured by anti-P-selectin-FITC analyzed on FACS. Consistent with previous reports, KPL-1 almost completely abolished P-selectin's binding to activate T cells at a low concentration (0.31 μg/ml). 43B6 blocked binding of P-selectin to activated T cells as effectively as KPL-1 did, whereas a higher concentration of 9F9 was required to achieve the same effect. Indeed, 0.08 μg/ml KPL or 43B6 was needed to abolish 50% of the binding. In contrast, 5 μg/ml 9F9 was required.

[5] = target: T3, E. coli expressed hCD162 fragment 42-80 …; assay: sandwich ELISA, fusion protein captured by goat anti-human IgG
Experimental: as §1, §2

[6] = target: T4, E. coli expressed hCD162 fragment …; assay: as above
Experimental: as §1, §2

[7] = target: T2, human P-Selectin Glycoprotein Ligand-1 …; assay: cell-based or functional assay
[8] = target: T2, human P-Selectin Glycoprotein Ligand-1 …; assay: derived from FACS competition against Biotin-labeled mouse 15A7 on CD162-expressing Sp2/0 cells
Experimental: as §3

[9] = target: T3, E. coli expressed hCD162 fragment 42-80 …; assay: sandwich ELISA, fusion protein captured by goat anti-human IgG, antibody at 2 µg/ml
Experimental: as §1, §2

[10] = target: T4, E. coli expressed hCD162 fragment …; assay: as above
Experimental: as §1, §2

[11] = target: T2, human P-Selectin Glycoprotein Ligand-1 …; assay: FACS, inhibition of recombinant human P-selectin binding to activated T cells; competitor P-selectin
Experimental: as §4

Molecule	binding result [2]	IC50 [3] [µg/mL]	Percentage of apoptotic T cells (annexin V positive, CD3 gated), Day 0 non-activated human T cells [7] [%]	Percentage of apoptotic T cells (annexin V positive, CD3 gated), Day 7 in vitro activated human T cells [7] [%]	Ka [8] [M⁻¹]	binding result [9]	binding result [10]	IC50 [11] [µg/mL]	further results
KPL-1 anti-hCD162 antibody (PharMingen)									IC50 [1]: 0.08 µg/mL; concentration that almost completely abolished P-selectin's binding [1]: 0.31 µg/mL
B1	binds	3.72	5.23	51.7	4.03e+07				IC50 [4]: > 20 µg/mL; binding result [5]: no binding (tested: 2 µg/ml); binding result [6]: no binding (tested: 2 µg/ml)
B2		~5.71			2.62e+07				
B3		~4.51			3.33e+07				
B4	binds		6.57	49.4		binds	binds	0.08	
B5	binds		5.82	28.7		binds	binds	5	
